# Data from patent publication US20260258115A1 (MAPP BIOPHARMACEUTICAL, published 2026).
# Residue numbers refer to the chain shown, from its start.
# B1: ADI-20979 (antibody, V domains shown)
# VH: EVQLQESGPGLVKPSETLSLTCTVSGGSLRSYYWSWIRQPPGKGLEWIGNIYYGGSTNYNSSLKGRVTISIDTSKNQFSLRLSSVTAADTAVYYCARDGLFPMGEWDYWGQGILVTVSS
# VL: QSALTQPASVSGSPGQSITISCTGTSNDVGDYNYVSWYQQHPGEAPKLMIYEVTNRPSGVSDRFSGSKSGNTASLTISGLQAEDEADYYCSSYTSSTSVVFGGGTQLTVL
# notes: also called Ab 232
# B2: ADI-21033 (antibody, V domains shown)
# VH: QVQLVQSGAEVRKPGDSLKISCKFSENIFTTYYWTGWVRQMPGRGLEWMGIIFPGDSDTRYSPSFQGHVTISVDKSIATAFLQWSSLKASDSAMYYCARAKYEGSFDMWGQGTMVTVSS
# VL: DIQVTQSPSSLSASVGDRVSITCQASQDIRNRLNWYQQKPGKAPKLLIYDASILETGVPSRFSGSGSGTDFTFSISSLQPEDFATYYCQQYDSFSLFTFGPGTKVEIK
# B3: ADI-21014 (antibody, V domains shown)
# VH: QVQLQESGPGLVKPSETLSLICTVSGGSISNYYWSWIRQPPGKGLEWIGYVWFGTTKYNPSLKNRVTISVDTGKNQVSLKVNSVTAADTAIYYCARDSSIWYRGAFEIWGQGTTVTVSS
# VL: DIRLTQSPSSLSASVGDRVTITCQASQDISNHLNWYQQRPGKAPELLIYDASTLETGGPSRFSGSGSGTDFTLTISSLQPEDFADYYCQQYDNLPVTFGGGTKVDIK
# B4: ADI-20992 (antibody, V domains shown)
# VH: EVQLVESGGGLVQPGGSLRLSCVVSGFTFKSYWMTWVRQAPGKGLEWVANIKEDGSEKYYVDSVKGRFTISRDNARNSLFLQMNSLRADDTAVYYCARNLEVSNEFYVVTDNYYLMDVWGQGTTVTVSS
# VL: DIQLTQSPSSLSASVGDRVTITCRASQSISFFLNWYRQKPGKAPKLLIYAASTLQSGVPSRFSGSGSGTDFTLTISSLQPEDFASYYCQQSYSTPHTFGQGTKVEIK
# B5: ADI-21029 (antibody, V domains shown)
# VH: QVQLVQSGAEVRKPGESLKISCKASGYSFTNYWIGWVRQMPGKGLEWMGIVYPADSHPVYSPSFQGQVTFSTDKSINTAYLQWSSLKASDTAMYFCARRDGGTDYLSDAFDIWGQGTMVTVSS
# VL: B4 VL with Q3V, L4M, A25T, S30R, F31R, F32Y, R37Q, T53S, S85T, H96N
# B6: ADI-21017 (antibody, V domains shown)
# VH: QVQLVESGTEVKKPGASVKVSCKASGYTFTNYGITWVRQAPGQGLEWMGCISGYNGNTNYAQNLQGRVTMTTDTSTNTAYMELRSLISDDTAVYYCARDTGLTAAALLDYWGQGTLVTVSS
# VL: DIVLTQSPLSLPVTLGQPASISCRSSQSLVYSDGNTYLSWFQQRPGQSPRRLIYKVSNRDSGVPDRFGGSGSGTYFTLKISRVEAEDVGIYYCMQAIHWPLTFGGGTKVEIK
# B7: ADI-20983 (antibody, V domains shown)
# VH: EVQLVESGGALVQPGGSLRLSCSASGFTFSSYAMHWVRQAPGKGLEYVSAINNFGDKTYYTDSVEGRFTISRDNSKKTLYLQMSSLRPEDTAVYYCVKDRGYCSSPSCYAVPYYYFYGMDVWGQGTTVTVSS
# VL: EIVMTQSPSSLSASVGDRVTITCQASQGISNYLHWYQQKPGKAPKLLIYDASNLEAGVPSRFSGSGAGTDFTFTISSLQPEDVATYYCQHYNNLPFTFGPGTKVDIK
# B8: ADI-20999 (antibody, V domains shown)
# VH: QVQLQESGPVLVKPSETLSLTCTVSGGSITSSAYYWGWIRQPPGKGLEWIGSVSYSGTTSYTPSLKSRVTISGDASKEQFSLNLRSVTAADTAVYYCARQTKAFGRRDYGMDVWGQGTTVTVSS
# VL: QPVLTQPPSVSAAPGQKVTISCSGSNSNIGSNFVSWYQQLPGTAPKLLIYENNKRPSGIPDRFSGSKSGPSATLGITGLQTEDEADYYCGTWDTGLSAHWVFGGGTKLTVL
# notes: also called Ab 250
# B9: ADI-21023 (antibody, V domains shown)
# VH: EVQLVESGGGLVKPGGSLRLSCAASGFRFSSYGMHWVRQAPGRGLEWVSSITAGSSYMDYADSVKGRFSISRDNAKTSLYLQMNSLRAEDTAIYYCARENYDTGRGLNWFDPWGQGTLVTVSS
# VL: QSVVTQPPSVSGAPGQRVTISCTGSSSNIGAGYDVHWYRQLPGTAPEVLIYGNNNRPSGVPDRFSGSKTGTSASLAITGLLAEDGADYYCQSYDRSQLWVFGGGTQLTVP
# B10: ADI-20986 (antibody, V domains shown)
# VH: EVQLVESGGGLVQPGGSLRLSCVASGFTFSNYWMNWVRQAPGKGLEWVANIKEDGSEIKYVDSVKGRFTISRDNAKNSLYLQMNSLRAEDTAVYYCARTEDSSSWFVAIDYYNYMDVWGKGTTVTVSS
# VL: DIQVTQSPGTLSLSPGERATLSCRASQTVSSSYLAWYQQKPGQAPRLLFYGASSRATDIPDRFSASGSGTDFTLTIHRLEPEDFAVYYCQLYGRSPPYTFGQGTKVEIK
# B11: ADI-20982 (antibody, V domains shown)
# VH: EVQLVESGPGLVKPSQTLSLTCSVSGVSISRGSYYWSWIRQPAGGGLEWIGRIYTSGVTRYNPSLESRVTISLDSSQNQFFLRLSSVTAADTAVYYCATRESASYSSGPDAFDIWGQGTTVTVSS
# VL: DIQMTQSPSTLSASVGDRVIITCRASQSVNSWLAWYQQKPGKAPKLLIYQASSLESGVPSRFSGSGSGTEFTLTINSLQPDDFATYYCQQYKTFSRPFGQGTKVEIK
# B12: ADI-20991 (antibody, V domains shown)
# VH: EVQLVESGGNLVKPGGSLRLSCAASGFTFSGYYMSWIRQAPGKGLEWISDISGGSSYTNYADSVKGRFTISRDNAKNSLYLQMNSLRAEDTAMYYCARVEYDTTGPFHFDYWGQGTLVTVSS
# VL: QPVLTQPPSVSGAPGQRVTISCTGSSSNIGAGYDVHWYQQLPGTAPKLLIYGNNNRPSGVPDRLSGSKSGTSASLAITGLQAEDEADYYCQSYDSSLSGYVFGTGTKVTVL
# B13: ADI-21027 (antibody, V domains shown)
# VH: QVQLQESGPGLVKPSGTLSLTCVVSGGSIRSHNYWTWVRQPPGKGLEWIGEIYHSGNTNYNPSLKSRVTLSIDKSKNVFSLRLNSVTAADTAVYYCVGGGPFAPYYFENWGQGTLVTVSS
# VL: B12 VL with P2S, D34A, Q39H, G52D, L64F, T71S, S95R, V108L
# B14: ADI-21025 (antibody, V domains shown)
# VH: EVQLVESGGGLVRPGGSLRLSCEASGLKLSGYSMNWVRQAPGKGLEWVSSISASSSYIHYADSLKGRFTISRDNAKNSLYLQMNSLRAEDTAVYYCVASWLTPGWFDPWGQGTLVTVSS
# VL: B12 VL with R17T, N54T, L64F, I77V, A86G, Y100S, V101A, T104G, V108L
# B15: ADI-20988 (antibody, V domains shown)
# VH: EVQLVESGGEVKKPGASVKVSCKTSGYPFSNYGISWMRLAPGQGLEWMGWISSYNGNTYYTKKFQGRVSMTTDTSTSTAYMELRSLRSDDTAVYYCARDVPVIAAHTFEYWGQGTLVTVSS
# VL: ETTLTQSPLSLPVTLGQPASISCRSSESLVYSDGNTYLSWFQQRPGQSPRRIIYKVSNRDSGVPDRFSGSGSGTDFTLKISRVEAEDVGVYYCMQATHWPRDTFGQGTKVDIK
# notes: also called Ab 240
# B16: ADI-21030 (antibody, V domains shown)
# VH: EVQLVESGGGLVKPGGSLRLSCAASGFKFSTYYMSWIRQAPGKGLEWVSNISGGSSYSNHADSVKGRFTISRDNAKNSLYLEMNSLRAEDTAVYYCAREDLMGVSGLAYFEYWGQGILVTVSS
# VL: QPVLTQPPSVSGAPGQRVTISCTGRSSNIGAGYDVNWYKQLPGAVPKVLIYGNTNRPSGVPDRFSGSKSGNSASLAITGLQAEDEADYYCQSYDRNLGYVFGTGTKLTVL
# B17: ADI-20974 (antibody, V domains shown)
# VH: EVQLVESGGGLVKPGGSLRLSCAASGFSFSSYQINWVRQAPGKGLEWVSSISGGSSYTDYADSIKGRFTISRDNAKKSAFLQMKSLRADDTAVYYCARALMATAGGLAFDIWGQGTMVTVSS
# VL: QPVLTQPPSVSGAPGQRVTISCTGSGSNIGAGYDVHWYQQVPGTAPKLLILRNTNRPSGVPDRFSGSKSGTSASLAITGLQAEDEADYYCQSYDRSLSVVFGGGTKLTVL
# B18: ADI-21034 (antibody, V domains shown)
# VH: QVQLQQSGAEVKKPGESLTISCKGSGYSFGNYWISWVRQMPGKGLEWMGRIDPSDSYVNYSPSFQGNVTMSVDKSSSTAYLQWSSLKASDTAMYYCARLAGYSTLWGQGTLVTVSS
# VL: EIVLTQSPGTLSLSPGERATLSCRASQSFGSIYLAWYQQKPGQAPRLLIYGTSSRATGIPDRFSGSGSGTDFTLTIRRLEPEDFAVYYCLYYGSSPGATFGPGTKVDIK
# B19: ADI-21021 (antibody, V domains shown)
# VH: QVQLQQWGAGLLKPSETLSLTCAVHGGSFSGFYWSWIRQSPGKGLEWIAEINDSGNTNHNPSLKSRVTISIDTSKNQFSLNVSSVTAADTAVYYCAKNGGGHHYVGTLRFRSRAFDIWGQGTMVTVSS
# VL: EIVMTQSPSTLSASVGDRVTITCRASQSIGNRLAWYQQKPGKAPKLLISLASGLETGVPSRFSGSGSGTEFTLTITSLQPDDFATYYCQQYSSYGTFGQGTKLEIK
# notes: also called Ab 270
# Target: RSV prefusion F (preF), subtype A (respiratory syncytial virus, subtype A, UniProt P03420 26-513)
# Assay: BLI, IgG
row,Binder,Kd
1,B1,0.979 nM
2,B2,0.193 nM
3,B3,0.408 nM
4,B4,0.956 nM
5,B5,3.77 nM
6,B6,0.305 nM
7,B7,0.213 nM
8,B8,4.16 nM
9,B9,0.264 nM
10,B10,0.414 nM
11,B11,4.88 nM
12,B12,0.234 nM
13,B13,0.296 nM
14,B14,0.242 nM
15,B15,0.294 nM
16,B16,0.257 nM
17,B17,0.291 nM
18,B18,0.145 nM
19,B19,2.55 nM

# Target: T1, RSV postfusion F (postF), subtype A (respiratory syncytial virus, subtype A, UniProt P03420 26-513)
# T1 construct: also called F ΔFP; Postfusion subtype A
# Assay: BLI, IgG
Binder,binding result,Kd
B1,no binding,
B2,no binding,
B3,no binding,
B4,no binding,
B5,no binding,
B6,no binding,
B7,,2.05 nM
B8,no binding,
B9,no binding,
B10,no binding,
B11,no binding,
B12,no binding,
B13,no binding,
B14,no binding,
B15,no binding,
B16,no binding,
B17,no binding,
B18,no binding,
B19,no binding,

# Target: RSV prefusion F (preF), subtype B (respiratory syncytial virus, subtype B)
# Assay: BLI, IgG
row,Binder,Kd
1,B1,4 nM
2,B2,1.4 nM
3,B3,0.378 nM
4,B4,1.22 nM
5,B5,8.38 nM
6,B6,1.56 nM
7,B7,1.17 nM
8,B8,24.1 nM
9,B9,0.316 nM
10,B10,1.25 nM
11,B11,5.45 nM
12,B12,0.258 nM
13,B13,0.34 nM
14,B14,0.295 nM
15,B15,1.29 nM
16,B16,0.301 nM
17,B17,0.36 nM
18,B18,0.174 nM
19,B19,4.5 nM
